What was measured:
[1] = target: T1, IgFLNa20–21 (filamin A immunoglobulin-like domains 20–21, residues 2141–2329) (Homo sapiens (Human), UniProt P21333); experiment: SAXS
T1 chain: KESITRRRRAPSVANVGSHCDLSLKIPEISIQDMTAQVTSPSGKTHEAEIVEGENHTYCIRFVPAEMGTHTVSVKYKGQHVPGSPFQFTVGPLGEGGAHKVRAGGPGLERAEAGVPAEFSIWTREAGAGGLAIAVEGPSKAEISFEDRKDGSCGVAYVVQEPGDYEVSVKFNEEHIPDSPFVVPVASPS

[2] = target: T2, IgFLNaΔA20–21 (filamin A domains 20–21 lacking the first β strand of domain 20, residues 2151–2329) (UniProt P21333 2151-2329); experiment: SAXS; 277 K; 20 mM Tris pH 8.0, 100 mM NaCl, 10 mM DTT; 1–4 mg/ml IgFLNa20–21 or IgFLNa∆A20–21; two times molar excess of migfilin peptide where added; details: both partners purified
T2 construct: filamin A (FLNa), Ig-like domains 20–21 without the A strand of domain 20 (2141–2150), residues 2151–2329; residues 2151–2235 form domain ΔA20 and 2236–2329 domain 21; 15N (and 13C) isotope-labelled for the NMR experiments; same construct; also called IgFLNa∆A20–21; IgFLNΔAa20–21; source: E. coli BL21, purified (Glutathione Sepharose, TEV cleavage, size-exclusion chromatography)
T2 sequence (looked up): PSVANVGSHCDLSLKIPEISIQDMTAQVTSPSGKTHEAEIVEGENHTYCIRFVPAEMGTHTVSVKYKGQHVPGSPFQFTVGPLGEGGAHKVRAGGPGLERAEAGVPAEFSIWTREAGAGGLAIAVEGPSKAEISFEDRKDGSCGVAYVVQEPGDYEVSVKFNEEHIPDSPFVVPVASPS

[3] = target: T3, IgFLNa20–21 (filamin A immunoglobulin-like domains 20–21, residues 2141–2329) (UniProt P21333 2141-2329); experiment: as above; details: both partners purified
T3 construct: Cloned into a modified pGEX vector; also called FLNa mechanosensor domain pair 20–21; source: E. coli BL21, purified (Glutathione Sepharose, TEV cleavage, size-exclusion chromatography)
T3 sequence (looked up): T1 chain

[4] = target: T4, IgFLNaΔA20–21 (filamin A domains 20–21 lacking the first β strand of domain 20, residues 2151–2329) (Homo sapiens (Human), UniProt P21333); experiment: NMR HSQC titration, crystal structure
T4 chain: T2 sequence (looked up)

Measured: binding result

B1: migfilin peptide (residues 5–28) (peptide)
peptide: PEKRVASSVFITLAPPRRDVAVAE
notes: migfilin, residues 5–28; it is removed here; Only residues 6–20 are seen in the crystal structure; also called migfilin^5–28 peptide; migfilin-derived peptide; source: bought: EZBiolab (Westfield, IN)
binds: [1] | [2] | [3] | [4]

Reference: paper PMC4554727, “Flexible Structure of Peptide-Bound Filamin A Mechanosensor Domain Pair 20–21” (PLoS ONE, 2015)
